Results on one molecule are retold here after patent publication US20240287172A1 (SCIRHOM, published 2024).

The assay concerns the target T1, hiR2-FL-G563D-T7 (human, UniProt Q6PJF5 1-856).
T1 sequence: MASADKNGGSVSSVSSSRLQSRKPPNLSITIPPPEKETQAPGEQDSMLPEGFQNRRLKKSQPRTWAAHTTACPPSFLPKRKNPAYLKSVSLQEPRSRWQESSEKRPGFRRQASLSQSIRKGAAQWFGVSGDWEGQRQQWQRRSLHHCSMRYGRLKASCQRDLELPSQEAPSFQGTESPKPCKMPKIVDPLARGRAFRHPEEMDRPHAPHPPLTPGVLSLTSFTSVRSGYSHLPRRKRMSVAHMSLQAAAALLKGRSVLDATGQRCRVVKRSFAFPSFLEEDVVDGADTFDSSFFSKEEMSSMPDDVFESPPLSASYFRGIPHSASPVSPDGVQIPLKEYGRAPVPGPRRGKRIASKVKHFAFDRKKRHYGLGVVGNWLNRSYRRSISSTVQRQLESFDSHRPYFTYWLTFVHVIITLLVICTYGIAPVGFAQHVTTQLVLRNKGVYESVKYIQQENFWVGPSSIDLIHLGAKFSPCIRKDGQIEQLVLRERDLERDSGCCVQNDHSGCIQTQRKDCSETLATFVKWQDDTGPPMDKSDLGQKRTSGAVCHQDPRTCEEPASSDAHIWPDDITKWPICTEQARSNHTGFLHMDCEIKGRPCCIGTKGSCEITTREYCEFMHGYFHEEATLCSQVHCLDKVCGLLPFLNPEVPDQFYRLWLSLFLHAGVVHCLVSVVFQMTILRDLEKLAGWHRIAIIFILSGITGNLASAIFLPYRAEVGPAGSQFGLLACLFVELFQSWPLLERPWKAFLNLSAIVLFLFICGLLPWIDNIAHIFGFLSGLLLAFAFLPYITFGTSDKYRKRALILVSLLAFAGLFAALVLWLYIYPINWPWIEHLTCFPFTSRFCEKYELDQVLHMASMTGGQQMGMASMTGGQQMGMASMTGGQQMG
Nature of the assay: FACS, MEF-DKO cells, 3 µg/ml. Put shortly:
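Binding read by flow cytometry after a PE goat anti-mouse IgG F(ab′)2 secondary (1:100, on ice, 1 h, dark). Before that, immortalized MEF-DKO lines carrying single-mutant hiR2-FL-T7 constructs were incubated 1 h on ice with 3 μg/ml antibody or FACS buffer alone.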
Background: A flow cytometer gives signals particle by particle.

B1: antibody 50 (antibody, V domains shown)
VH: QVQLQQSGAELVRPGASVKVSCKASGYAFSNYLIEWVKQRPGQGLEWIGVINPGSGFTKYNEKFKGKATLTADKSSSTAYMQLSSLTSEDSAVYFCARGLYRAMDYWGQGTSVTVSS
VL: DIQMTQSPASQSASLGESVTITCLASQTIGTWLAWYQQKPGKSPQLLIYAAASLADGVPSRFSGGGSGTKFSFKISSLQAEDFVNYYCQQIYSTPYTFGGGTKLEIK
notes: mouse IgG, kappa light chain; also called clone #50; purified antibody 50
With B1, the “loss of binding vs wild type” value is not below 30%.
